In patent US20120231006A1 (Amgen, published 2012):

Experiments:
[1] = molecular target: T1, human Orai1 (human, UniProt Q96D31 1-301); assay: FACS Kd, AM1-CHO/hOrai1/hSTIM1-YFP cells
T1 construct: on AM1-CHO/hOrai1/hSTIM1-YFP, AM1/hOrai1, HEK-293 transfectants, endogenous on Jurkat and blood cells; in Westerns from cell lysates; also called hOrai1; CRACM1
Experimental: The equilibrium plates were centrifuged at 500 g for 3 minutes and cell pellets were washed twice with 200 μL of ice cold FACS buffer (1×D-PBS+2% FBS). The cells were then incubated with a secondary antibody, goat anti-human Fc Cy5 at 5 μg/mL and 100 μL per well for 1 h on ice in the dark. Following the incubation, the cells were washed twice with 200 μL of ice-cold FACS buffer before flow cytometry analysis. The GeoMean values gated on live cell population measure the bound [Ab]. The inverse of the GeoMean values that reflects theoretical free [Ag] in the equilibrium solution was then calculated. The inverse values of the GeoMean read were used in KinExA® Pro software for analysis and Kd calculation for each antibody. The free [Ag] measure was plotted against the starting concentration of titrating component and from these plots at two different cell concentrations the Kd was obtained from curve fitting using n-curve analysis in KinExA Pro software. […] Shown in Table 14 (below) are the equilibrium dissociation constant (Kd) values of invented mAbs determined by FACS Kd measurement.

[2] = molecular target: T1, human Orai1; assay: cell-based or functional assay

T1 sequence (Q96D31 whole entry): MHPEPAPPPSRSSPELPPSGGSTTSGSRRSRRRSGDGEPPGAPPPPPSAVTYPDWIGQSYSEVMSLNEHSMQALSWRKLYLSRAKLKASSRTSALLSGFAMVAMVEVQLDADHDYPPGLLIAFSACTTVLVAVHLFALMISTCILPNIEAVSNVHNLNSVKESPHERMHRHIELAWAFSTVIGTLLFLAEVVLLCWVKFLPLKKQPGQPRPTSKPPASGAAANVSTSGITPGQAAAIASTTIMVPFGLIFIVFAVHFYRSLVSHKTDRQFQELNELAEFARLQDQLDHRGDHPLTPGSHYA

Kd [1] [nM]	IC50 IFN-γ, whole blood Donor A, recombinant mAb [2] [nM]	IC50 IFN-γ, whole blood Donor B, recombinant mAb [2] [nM]	IC50 IL-2, whole blood Donor A, recombinant mAb [2] [nM]	IC50 IL-2, whole blood Donor B, recombinant mAb [2] [nM]	Binder
0.483	2.67	1.17	3.17	0.8	mAb 5D7.2 (antibody, human IgG2, lambda, V domains shown, fully human IgG2 lambda, Campaign 2, recombinant) VH: QVQLVQSGAEVKKPGASVKVSCKASGYTFTDYYMNWVRQAPGQGLEWMGWINPNSGGTKYAQKFQGRVTMTRDTSIRTAYMELSRLRSDDTAVYYCAREYGGNSDWFDPWGQGTLVTVSS VL: QSVLTQPPSVSGAPGQRVTISCTGSSSNIGAGYDVHWYQQSPGTAPKLLIYGNSNRPSGVPDRFSGSKSGTSASLAITGLQAEDEADYYCQSYDNRLSDSVVIGGGTKLTVQG
0.735	0.8	42.9	1.34	1.14	mAb 5B5.1 (antibody, human IgG2, lambda, V domains shown, fully human IgG2 lambda, Campaign 2, recombinant; same chains as 5B5.2) VH: QVQLVQSGAEVKKPGASVKVSCKASGYTFTDYYINWVRQAPGQGLEWMGWINPNSGGTDYAQKFQGRVTMTRDTSIRTAYMELNRLTSDDTAVYYCAREYGGYEDWFDPWGQGTLVTVSS VL: QSVLTQPPSVSGAPGQRVTISCTGSNSNIGAGFDVHWYQQLPGTVPKLLIYGNNNRPSGVPDRFSGSKSGTSASLAITGLQAEDEADYYCQSYDSRLTVFGGGTKLTVLG
0.649	0.1	2.55	0.87	1.59	mAb 5H3.1 (antibody, human IgG2, lambda, V domains shown, fully human IgG2 lambda, Campaign 2, recombinant) VH: QVQLVQSGAEVKKPGASVKVSCKASGYTFTDYYMNWVRQAPGQGLEWMGWINPNSGGTKYAQKFQGRVTMTRDTSIRTAYMELSRLRSDDTAVYYCAREYGGNSDWFDPWGQGTLVTVSS VL: QSVLTQPPSVSGAPGQRVTISCTGSSSNIGAGYDVHWYQQLPGTAPKLLIYGNSNRPSGVPDRFSGSKSGTSASLAITGLQAEDEADYYCQSYDNRLSDSVVIGGGTKLAVQG
